Laboratory results: patent US20220064329A1 (Novo Nordisk, published 2022)
Numbering of substitutions follows the chain as printed. Names may count otherwise. Each block holds one binder with its values, some of them ahead of it.

Target: T1, recombinant human activated Factor VII (FVIIa) (human, UniProt P08709 61-212; P08709 213-466, ten glutamate residues of the Gla domain may be gamma-carboxylated)
T1 construct: chains tethered by a disulfide bond; also called Factor VIIa; rFVIIa
T1 sequence 1: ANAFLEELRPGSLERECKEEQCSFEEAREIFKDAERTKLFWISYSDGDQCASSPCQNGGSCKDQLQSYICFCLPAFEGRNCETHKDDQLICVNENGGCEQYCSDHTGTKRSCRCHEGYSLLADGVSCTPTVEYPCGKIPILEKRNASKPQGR
T1 sequence 2: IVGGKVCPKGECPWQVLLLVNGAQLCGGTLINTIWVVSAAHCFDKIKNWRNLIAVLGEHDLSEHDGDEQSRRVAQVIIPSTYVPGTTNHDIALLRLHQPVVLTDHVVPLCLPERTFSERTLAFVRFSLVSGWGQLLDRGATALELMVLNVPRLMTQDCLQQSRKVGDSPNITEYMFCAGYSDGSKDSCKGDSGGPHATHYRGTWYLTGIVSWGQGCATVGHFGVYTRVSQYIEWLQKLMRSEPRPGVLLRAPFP
Experiment: BLI (Fortebio)

B1: VH SEQ ID NO 570 / VL SEQ ID NO 390 (antibody, IgG4, V domains shown)
VH: QVQLQESGPGLVKPSDTLSLTCAVSGYSISSDSAWSWIRQPPGKGLEWIGYIQYSGSTNYNPSLKSRVTMSRDTSKNQFSLKLSSVTAADTAVYYCARSVNYYGNSFAVGPWGQGTLVTVSS
VL: EIVLTQSPATLSLSPGERATLSCRASQGVSDYLAWYQQKPGEAPRLLIKYASQPATGIPARFSGSGSGTDFTLTISSLEPEDFAVYYCQNGHSFPLTFGQGTKLEIK
notes: humanized 11F2; IgG4 S228P/kappa
Kd: 48 nM

B2: VH SEQ ID NO 570 / VL SEQ ID NO 494 (antibody, IgG4, V domains shown)
VH: B1 VH
VL: B1 VL with A34H, E42Q, F83V
notes: as for B1
Kd: 1.1 nM

B3: VH SEQ ID NO 570 / VL SEQ ID NO 430 (antibody, IgG4, V domains shown)
VH: B1 VH
VL: B1 VL with E42Q, A84G
notes: as for B1
Kd: 16 nM

B5: VH SEQ ID NO 570 / VL SEQ ID NO 470 (antibody, IgG4, V domains shown)
VH: B1 VH
VL: B1 VL with A34H, E42Q
notes: as for B1
Kd: 1.1 nM

B7: VH SEQ ID NO 578 / VL SEQ ID NO 454 (antibody, IgG4, V domains shown)
VH: B1 VH with R72V, A89L
VL: B1 VL with A34H
notes: as for B1
Kd: 25 nM

B8: VH SEQ ID NO 578 / VL SEQ ID NO 334 (antibody, IgG4, V domains shown)
VH: B1 VH with R72V, A89L
VL: B1 VL with V29I, A34H, E42Q
notes: as for B1
Kd: 22 nM

B10: VH SEQ ID NO 570 / VL SEQ ID NO 422 (antibody, IgG4, V domains shown)
VH: B1 VH
VL: B1 VL with E42Q, N90Q
notes: as for B1
Kd: 2400 nM

B11: VH SEQ ID NO 578 / VL SEQ ID NO 342 (antibody, IgG4, V domains shown)
VH: B1 VH with R72V, A89L
VL: B1 VL with V29I, A34H, E42Q, A51T, T69R, Q100A, I106L
notes: as for B1
Kd: 43 nM

B14: VH SEQ ID NO 578 / VL SEQ ID NO 382 (antibody, IgG4, V domains shown)
VH: B1 VH with R72V, A89L
VL: B1 VL with V29L, A34H
notes: as for B1
Kd: 30 nM

B15: VH SEQ ID NO 570 / VL SEQ ID NO 486 (antibody, IgG4, V domains shown)
VH: B1 VH
VL: B1 VL with A34H, E42Q, A84G
notes: as for B1
Kd: 0.99 nM

B16: VH SEQ ID NO 570 / VL SEQ ID NO 446 (antibody, IgG4, V domains shown)
VH: B1 VH
VL: B1 VL with E42Q, A51T
notes: as for B1
Kd: 24 nM

B17: VH SEQ ID NO 570 / VL SEQ ID NO 462 (antibody, IgG4, V domains shown)
VH: B1 VH
VL: B1 VL with A34H, E42Q, Q100A
notes: as for B1
Kd: 1.1 nM

B20: VH SEQ ID NO 578 / VL SEQ ID NO 358 (antibody, IgG4, V domains shown)
VH: B1 VH with R72V, A89L
VL: B1 VL with V29I, A34H, E42Q, A51T
notes: as for B1
Kd: 19 nM

B23: VH SEQ ID NO 578 / VL SEQ ID NO 462 (antibody, IgG4, V domains shown)
VH: B1 VH with R72V, A89L
VL: B1 VL with A34H, E42Q, Q100A
notes: as for B1
Kd: 27 nM

B24: VH SEQ ID NO 570 / VL SEQ ID NO 438 (antibody, IgG4, V domains shown)
VH: B1 VH
VL: B1 VL with E42Q, F83V
notes: as for B1
Kd: 210 nM

B26: VH SEQ ID NO 570 / VL SEQ ID NO 478 (antibody, IgG4, V domains shown)
VH: B1 VH
VL: B1 VL with A34H, E42Q, N90Q
notes: as for B1
Kd: 1.9 nM

B27: VH SEQ ID NO 578 / VL SEQ ID NO 478 (antibody, IgG4, V domains shown)
VH: B1 VH with R72V, A89L
VL: B1 VL with A34H, E42Q, N90Q
notes: as for B1
Kd: 310 nM

B28: VH SEQ ID NO 578 / VL SEQ ID NO 494 (antibody, IgG4, V domains shown)
VH: B1 VH with R72V, A89L
VL: B1 VL with A34H, E42Q, F83V
notes: as for B1
Kd: 28 nM

B29: VH SEQ ID NO 578 / VL SEQ ID NO 430 (antibody, IgG4, V domains shown)
VH: B1 VH with R72V, A89L
VL: B1 VL with E42Q, A84G
notes: as for B1
Kd: 820 nM

B30: VH SEQ ID NO 570 / VL SEQ ID NO 406 (antibody, IgG4, V domains shown)
VH: B1 VH
VL: B1 VL with E42Q, Q100A
notes: as for B1
Kd: 20 nM

B32: VH SEQ ID NO 570 / VL SEQ ID NO 454 (antibody, IgG4, V domains shown)
VH: B1 VH
VL: B1 VL with A34H
notes: as for B1
Kd: 1.1 nM

B37: VH SEQ ID NO 570 / VL SEQ ID NO 414 (antibody, IgG4, V domains shown)
VH: B1 VH
VL: B1 VL with E42Q
notes: as for B1
Kd: 21 nM

B38: VH SEQ ID NO 570 / VL SEQ ID NO 502 (antibody, IgG4, V domains shown)
VH: B1 VH
VL: B1 VL with A34H, E42Q, A51T
notes: as for B1
Kd: 0.92 nM

B39: VH SEQ ID NO 578 / VL SEQ ID NO 486 (antibody, IgG4, V domains shown)
VH: B1 VH with R72V, A89L
VL: B1 VL with A34H, E42Q, A84G
notes: as for B1
Kd: 23 nM

B41: VH SEQ ID NO 578 / VL SEQ ID NO 350 (antibody, IgG4, V domains shown)
VH: B1 VH with R72V, A89L
VL: B1 VL with V29I, A34H, E42Q, A51T, Q100A, I106L
notes: as for B1
Kd: 21 nM

B42: VH SEQ ID NO 578 / VL SEQ ID NO 318 (antibody, IgG4, V domains shown)
VH: B1 VH with R72V, A89L
VL: B1 VL with V29I, A34H, A51T
notes: as for B1
Kd: 17 nM

B43: VH SEQ ID NO 578 / VL SEQ ID NO 326 (antibody, IgG4, V domains shown)
VH: B1 VH with R72V, A89L
VL: B1 VL with V29I, A34H, A51T, A84G, Q100A, I106L
notes: as for B1
Kd: 16 nM

B44: VH SEQ ID NO 570 / VL SEQ ID NO 398 (antibody, IgG4, V domains shown)
VH: B1 VH
VL: B1 VL with A51T
notes: as for B1
Kd: 29 nM

B45: VH SEQ ID NO 578 / VL SEQ ID NO 470 (antibody, IgG4, V domains shown)
VH: B1 VH with R72V, A89L
VL: B1 VL with A34H, E42Q
notes: as for B1
Kd: 25 nM

More lines, now with the values ahead:

Kd: 1500 nM
B4: VH SEQ ID NO 586 / VL SEQ ID NO 310 (antibody, IgG4, V domains shown)
VH: B1 VH with R72V, A89L, P111Y
VL: B1 VL with V29I, E42Q
notes: as for B1

Kd: 12 nM
B6: VH SEQ ID NO 586 / VL SEQ ID NO 350 (antibody, IgG4, V domains shown)
VH: B1 VH with R72V, A89L, P111Y
VL: B1 VL with V29I, A34H, E42Q, A51T, Q100A, I106L
notes: as for B1

Kd: 23 nM
B9: VH SEQ ID NO 586 / VL SEQ ID NO 438 (antibody, IgG4, V domains shown)
VH: B1 VH with R72V, A89L, P111Y
VL: B1 VL with E42Q, F83V
notes: as for B1

Kd: 9.8 nM
B12: VH SEQ ID NO 586 / VL SEQ ID NO 318 (antibody, IgG4, V domains shown)
VH: B1 VH with R72V, A89L, P111Y
VL: B1 VL with V29I, A34H, A51T
notes: as for B1

Kd: 18 nM
B13: VH SEQ ID NO 586 / VL SEQ ID NO 342 (antibody, IgG4, V domains shown)
VH: B1 VH with R72V, A89L, P111Y
VL: B1 VL with V29I, A34H, E42Q, A51T, T69R, Q100A, I106L
notes: as for B1

Kd: 24 nM
B18: VH SEQ ID NO 578 / VL SEQ ID NO 502 (antibody, IgG4, V domains shown)
VH: B1 VH with R72V, A89L
VL: B1 VL with A34H, E42Q, A51T
notes: as for B1

Kd: 13 nM
B19: VH SEQ ID NO 586 / VL SEQ ID NO 430 (antibody, IgG4, V domains shown)
VH: B1 VH with R72V, A89L, P111Y
VL: B1 VL with E42Q, A84G
notes: as for B1

Kd: 17 nM
B21: VH SEQ ID NO 586 / VL SEQ ID NO 382 (antibody, IgG4, V domains shown)
VH: B1 VH with R72V, A89L, P111Y
VL: B1 VL with V29L, A34H
notes: as for B1

Kd: 13 nM
B22: VH SEQ ID NO 586 / VL SEQ ID NO 334 (antibody, IgG4, V domains shown)
VH: B1 VH with R72V, A89L, P111Y
VL: B1 VL with V29I, A34H, E42Q
notes: as for B1

Kd: 11 nM
B25: VH SEQ ID NO 586 / VL SEQ ID NO 358 (antibody, IgG4, V domains shown)
VH: B1 VH with R72V, A89L, P111Y
VL: B1 VL with V29I, A34H, E42Q, A51T
notes: as for B1

Kd: 19 nM
B31: VH SEQ ID NO 586 / VL SEQ ID NO 406 (antibody, IgG4, V domains shown)
VH: B1 VH with R72V, A89L, P111Y
VL: B1 VL with E42Q, Q100A
notes: as for B1

Kd: 21 nM
B33: VH SEQ ID NO 586 / VL SEQ ID NO 366 (antibody, IgG4, V domains shown)
VH: B1 VH with R72V, A89L, P111Y
VL: B1 VL with V29L
notes: as for B1

Kd: 38 nM
B34: VH SEQ ID NO 586 / VL SEQ ID NO 390 (antibody, IgG4, V domains shown)
VH: B1 VH with R72V, A89L, P111Y
VL: B1 VL
notes: as for B1

Kd: 16 nM
B35: VH SEQ ID NO 586 / VL SEQ ID NO 454 (antibody, IgG4, V domains shown)
VH: B1 VH with R72V, A89L, P111Y
VL: B1 VL with A34H
notes: as for B1

Kd: 9.9 nM
B36: VH SEQ ID NO 586 / VL SEQ ID NO 326 (antibody, IgG4, V domains shown)
VH: B1 VH with R72V, A89L, P111Y
VL: B1 VL with V29I, A34H, A51T, A84G, Q100A, I106L
notes: as for B1

Kd: 25 nM
B40: VH SEQ ID NO 586 / VL SEQ ID NO 414 (antibody, IgG4, V domains shown)
VH: B1 VH with R72V, A89L, P111Y
VL: B1 VL with E42Q
notes: as for B1
